T1: TX1BP3, O14907
T1 sequence (O14907 10-122, limits assumed, looked up): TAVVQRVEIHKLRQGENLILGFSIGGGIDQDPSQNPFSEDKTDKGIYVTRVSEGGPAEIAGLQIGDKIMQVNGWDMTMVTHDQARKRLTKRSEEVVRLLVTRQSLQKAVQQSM

T2: PDZD2_2, O15018
T2 sequence (O15018 329-429, limits assumed, looked up): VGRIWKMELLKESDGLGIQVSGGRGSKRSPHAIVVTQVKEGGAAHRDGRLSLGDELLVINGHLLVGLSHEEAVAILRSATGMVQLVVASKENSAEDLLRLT

T3: HTRA3, P83110
T3 sequence (P83110 354-453, limits assumed, looked up): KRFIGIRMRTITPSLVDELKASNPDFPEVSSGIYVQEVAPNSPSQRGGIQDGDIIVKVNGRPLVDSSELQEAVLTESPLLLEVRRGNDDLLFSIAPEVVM

T4: ARHGAP21, Q5T5U3
T4 sequence (Q5T5U3 45-169, limits assumed, looked up): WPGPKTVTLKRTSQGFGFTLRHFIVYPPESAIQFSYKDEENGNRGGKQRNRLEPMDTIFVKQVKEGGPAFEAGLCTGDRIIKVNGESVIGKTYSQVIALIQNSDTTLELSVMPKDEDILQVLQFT

T5: LIN7A, O14910
T5 sequence (O14910 103-200, limits assumed, looked up): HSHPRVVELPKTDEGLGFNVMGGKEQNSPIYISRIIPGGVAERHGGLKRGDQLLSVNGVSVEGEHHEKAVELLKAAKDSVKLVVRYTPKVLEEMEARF

T6: SYNJ2BP, P57105
T6 sequence (P57105 8-110, limits assumed, looked up): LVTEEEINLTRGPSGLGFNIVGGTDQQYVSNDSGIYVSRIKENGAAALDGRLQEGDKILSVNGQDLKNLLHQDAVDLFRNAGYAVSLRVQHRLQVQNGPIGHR

T7: GRIP1_7, Q9Y3R0
T7 sequence (Q9Y3R0 999-1096, limits assumed, looked up): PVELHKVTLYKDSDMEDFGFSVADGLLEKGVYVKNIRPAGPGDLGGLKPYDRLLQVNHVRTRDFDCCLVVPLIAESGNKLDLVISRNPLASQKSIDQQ

T8: DFNB31_2, Q9P202
T8 sequence (Q9P202 274-371, limits assumed, looked up): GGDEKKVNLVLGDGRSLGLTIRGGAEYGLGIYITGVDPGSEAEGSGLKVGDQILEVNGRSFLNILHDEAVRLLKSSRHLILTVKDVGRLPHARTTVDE


Assays:
Assay in all cases: holdup assay
Parameters in all cases: key: below the threshold = too weak to quantify, mostly under pKd 3.1 to 4
Settings in all cases: plain residues with an end cap or a label only (N-terminal biotin on a linker: ado-ado)
MAGI2_3, Q86UL8 = target: MAGI2_3, Q86UL8
Chain of MAGI2_3, Q86UL8 (Q86UL8 600-682): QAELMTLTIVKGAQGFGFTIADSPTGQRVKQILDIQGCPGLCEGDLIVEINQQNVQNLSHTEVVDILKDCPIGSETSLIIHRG

FRMPD2_1, Q68DX3 = target: FRMPD2_1, Q68DX3
Chain of FRMPD2_1, Q68DX3 (Q68DX3 770-861): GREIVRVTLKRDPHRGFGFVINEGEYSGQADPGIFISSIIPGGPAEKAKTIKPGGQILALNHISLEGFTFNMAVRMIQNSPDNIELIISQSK

FRMPD4, Q14CM0 = target: FRMPD4, Q14CM0
Chain of FRMPD4, Q14CM0 (Q14CM0 67-160): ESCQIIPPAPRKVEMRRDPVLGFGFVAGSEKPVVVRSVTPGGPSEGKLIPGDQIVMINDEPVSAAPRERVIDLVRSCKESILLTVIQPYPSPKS

TX1BP3, O14907 = target: T1, TX1BP3, O14907
PICK1, Q9NRD5 = target: PICK1, Q9NRD5
Chain of PICK1, Q9NRD5 (Q9NRD5 17-115): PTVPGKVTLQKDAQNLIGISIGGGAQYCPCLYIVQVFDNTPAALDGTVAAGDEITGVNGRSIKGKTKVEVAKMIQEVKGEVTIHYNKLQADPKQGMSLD

LNX1_2, Q8TBB1 = target: LNX1_2, Q8TBB1
Chain of LNX1_2, Q8TBB1 (Q8TBB1 371-470): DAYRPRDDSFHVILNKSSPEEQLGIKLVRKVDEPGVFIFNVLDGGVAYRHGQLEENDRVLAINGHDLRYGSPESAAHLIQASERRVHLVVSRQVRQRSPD

PDZD2_2, O15018 = target: T2, PDZD2_2, O15018
DLG2_2, Q15700 = target: DLG2_2, Q15700
Chain of DLG2_2, Q15700 (Q15700 189-283): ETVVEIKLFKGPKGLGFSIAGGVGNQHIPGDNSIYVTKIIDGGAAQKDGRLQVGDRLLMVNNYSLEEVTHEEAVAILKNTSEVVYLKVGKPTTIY

HTRA3, P83110 = target: T3, HTRA3, P83110
ARHGAP21, Q5T5U3 = target: T4, ARHGAP21, Q5T5U3
GORASP1, Q9BQQ3 = target: GORASP1, Q9BQQ3
Chain of GORASP1, Q9BQQ3 (Q9BQQ3 1-208): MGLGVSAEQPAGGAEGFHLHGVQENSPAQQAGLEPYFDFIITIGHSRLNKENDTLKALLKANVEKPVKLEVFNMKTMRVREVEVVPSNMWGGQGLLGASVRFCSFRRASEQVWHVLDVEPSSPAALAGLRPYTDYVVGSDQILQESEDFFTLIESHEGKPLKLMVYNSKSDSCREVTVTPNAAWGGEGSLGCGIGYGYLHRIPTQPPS

LIN7A, O14910 = target: T5, LIN7A, O14910
MAGI3_2, Q5TCQ9 = target: MAGI3_2, Q5TCQ9
Chain of MAGI3_2, Q5TCQ9 (Q5TCQ9 398-503): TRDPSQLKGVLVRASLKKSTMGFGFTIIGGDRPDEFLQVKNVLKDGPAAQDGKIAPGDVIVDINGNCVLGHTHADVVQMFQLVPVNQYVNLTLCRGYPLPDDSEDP

HTRA1, Q92743 = target: HTRA1, Q92743
Chain of HTRA1, Q92743 (Q92743 360-477): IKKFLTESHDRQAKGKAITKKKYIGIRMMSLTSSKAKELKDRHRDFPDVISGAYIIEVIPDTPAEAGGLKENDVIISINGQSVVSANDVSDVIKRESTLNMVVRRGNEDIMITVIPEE

SYNJ2BP, P57105 = target: T6, SYNJ2BP, P57105
TJP1_2, Q07157 = target: TJP1_2, Q07157
Chain of TJP1_2, Q07157 (Q07157 181-274): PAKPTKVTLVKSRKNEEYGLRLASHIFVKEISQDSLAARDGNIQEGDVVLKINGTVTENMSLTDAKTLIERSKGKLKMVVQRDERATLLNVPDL

Inadl_10, Q8NI35 = target: Inadl_10, Q8NI35
Chain of Inadl_10, Q8NI35 (Q8NI35 1673-1763): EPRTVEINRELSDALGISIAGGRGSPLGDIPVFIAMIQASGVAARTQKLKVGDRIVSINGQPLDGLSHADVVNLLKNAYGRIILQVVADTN

Inadl_8, Q8NI35 = target: Inadl_8, Q8NI35
Chain of Inadl_8, Q8NI35 (Q8NI35 1425-1530): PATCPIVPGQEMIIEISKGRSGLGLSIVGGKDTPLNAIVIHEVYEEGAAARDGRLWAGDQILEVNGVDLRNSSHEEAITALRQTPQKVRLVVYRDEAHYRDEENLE

Inadl_5, Q8NI35 = target: Inadl_5, Q8NI35
Chain of Inadl_5, Q8NI35 (Q8NI35 673-780): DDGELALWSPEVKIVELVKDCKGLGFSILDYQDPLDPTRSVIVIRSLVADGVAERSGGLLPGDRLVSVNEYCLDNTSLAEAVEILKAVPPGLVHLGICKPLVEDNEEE

GRID2IP_2, A4D2P6 = target: GRID2IP_2, A4D2P6
Chain of GRID2IP_2, A4D2P6 (A4D2P6 272-370): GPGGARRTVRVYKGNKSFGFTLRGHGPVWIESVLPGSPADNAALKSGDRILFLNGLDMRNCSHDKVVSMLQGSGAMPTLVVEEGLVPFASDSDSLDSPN

DLG5_1, Q8TDM6 = target: DLG5_1, Q8TDM6
Chain of DLG5_1, Q8TDM6 (Q8TDM6 617-713): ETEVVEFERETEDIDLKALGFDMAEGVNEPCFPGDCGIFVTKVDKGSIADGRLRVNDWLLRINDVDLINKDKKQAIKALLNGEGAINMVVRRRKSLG

IL16_3, Q14005 = target: IL16_3, Q14005
Chain of IL16_3, Q14005 (Q14005 1107-1207): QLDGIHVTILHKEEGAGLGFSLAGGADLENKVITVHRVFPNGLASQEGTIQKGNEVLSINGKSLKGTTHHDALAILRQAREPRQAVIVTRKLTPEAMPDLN

SCRIB_2, Q14160 = target: SCRIB_2, Q14160
Chain of SCRIB_2, Q14160 (Q14160 857-960): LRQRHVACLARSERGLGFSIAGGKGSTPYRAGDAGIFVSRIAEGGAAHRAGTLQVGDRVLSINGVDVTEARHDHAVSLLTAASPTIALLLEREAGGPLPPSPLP

Inadl_2, Q8NI35 = target: Inadl_2, Q8NI35
Chain of Inadl_2, Q8NI35 (Q8NI35 238-335): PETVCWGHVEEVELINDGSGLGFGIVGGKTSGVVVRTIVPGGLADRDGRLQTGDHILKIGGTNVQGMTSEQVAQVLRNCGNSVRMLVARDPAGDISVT

GRIP1_7, Q9Y3R0 = target: T7, GRIP1_7, Q9Y3R0
MAGI2_5, Q86UL8 = target: MAGI2_5, Q86UL8
Chain of MAGI2_5, Q86UL8 (Q86UL8 915-1017): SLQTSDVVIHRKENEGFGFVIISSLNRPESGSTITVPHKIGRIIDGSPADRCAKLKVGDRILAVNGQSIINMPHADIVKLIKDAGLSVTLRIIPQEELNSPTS

DLG4_3, P78352 = target: DLG4_3, P78352
Chain of DLG4_3, P78352 (P78352 306-403): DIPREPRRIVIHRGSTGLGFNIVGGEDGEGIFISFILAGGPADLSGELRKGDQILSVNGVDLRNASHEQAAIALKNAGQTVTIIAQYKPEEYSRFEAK

DFNB31_2, Q9P202 = target: T8, DFNB31_2, Q9P202
GRIP2_3, Q9C0E4 = target: GRIP2_3, Q9C0E4
Chain of GRIP2_3, Q9C0E4 (Q9C0E4 238-339): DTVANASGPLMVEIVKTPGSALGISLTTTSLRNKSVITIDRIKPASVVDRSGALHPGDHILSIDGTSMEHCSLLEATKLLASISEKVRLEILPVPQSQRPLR

| pKd (MAGI2_3, Q86UL8) | pKd (FRMPD2_1, Q68DX3) | pKd (FRMPD4, Q14CM0) | pKd (TX1BP3, O14907) | pKd (PICK1, Q9NRD5) | pKd (LNX1_2, Q8TBB1) | pKd (PDZD2_2, O15018) | pKd (DLG2_2, Q15700) | pKd (HTRA3, P83110) | pKd (ARHGAP21, Q5T5U3) | pKd (GORASP1, Q9BQQ3) | pKd (LIN7A, O14910) | pKd (MAGI3_2, Q5TCQ9) | pKd (HTRA1, Q92743) | pKd (SYNJ2BP, P57105) | pKd (TJP1_2, Q07157) | pKd (Inadl_10, Q8NI35) | pKd (Inadl_8, Q8NI35) | pKd (Inadl_5, Q8NI35) | pKd (GRID2IP_2, A4D2P6) | Binder | other results |
| --- | --- | --- | --- | --- | --- | --- | --- | --- | --- | --- | --- | --- | --- | --- | --- | --- | --- | --- | --- | --- | --- |
| below the threshold | below the threshold | below the threshold | 4.82 | below the threshold | 3.74 | 4.76 | 4.63 | 3.63 | below the threshold | below the threshold | 3.66 | 4.13 | 4.47 | 5.28 | 3.62 | 4.32 | 4.49 | 3.49 | 4.3 | RQSILFSTEV [BCR, P11274] | pKd (DLG5_1, Q8TDM6): below the threshold; pKd (IL16_3, Q14005): below the threshold; pKd (SCRIB_2, Q14160): 4.54; pKd (Inadl_2, Q8NI35): below the threshold; pKd (GRIP1_7, Q9Y3R0): below the threshold; pKd (MAGI2_5, Q86UL8): 5.17; pKd (DLG4_3, P78352): 3.7; pKd (DFNB31_2, Q9P202): below the threshold; pKd (GRIP2_3, Q9C0E4): 3.69 |
| below the threshold | below the threshold | below the threshold | below the threshold | below the threshold | below the threshold | below the threshold | below the threshold | below the threshold | below the threshold | below the threshold | below the threshold | below the threshold | below the threshold | below the threshold | below the threshold | below the threshold | below the threshold | below the threshold | below the threshold | LSEFKAMDSF [CTNNA2, P26232] | pKd (DLG5_1, Q8TDM6): below the threshold; pKd (IL16_3, Q14005): below the threshold; pKd (SCRIB_2, Q14160): below the threshold; pKd (Inadl_2, Q8NI35): below the threshold; pKd (GRIP1_7, Q9Y3R0): below the threshold; pKd (MAGI2_5, Q86UL8): below the threshold; pKd (DLG4_3, P78352): below the threshold; pKd (DFNB31_2, Q9P202): below the threshold; pKd (GRIP2_3, Q9C0E4): below the threshold |
| below the threshold | 3.54 | below the threshold | 4.85 | below the threshold | 3.75 | below the threshold | 4.51 | below the threshold | 3.97 | below the threshold | below the threshold | 5.19 | 4.36 | 5.12 | below the threshold | below the threshold | 4.29 | below the threshold | 3.92 | SMLNRRTTPV [CACNG4, Q9UBN1] | pKd (DLG5_1, Q8TDM6): below the threshold; pKd (IL16_3, Q14005): below the threshold; pKd (SCRIB_2, Q14160): 3.53; pKd (Inadl_2, Q8NI35): below the threshold; pKd (GRIP1_7, Q9Y3R0): below the threshold; pKd (MAGI2_5, Q86UL8): below the threshold; pKd (DLG4_3, P78352): 4.85; pKd (DFNB31_2, Q9P202): below the threshold; pKd (GRIP2_3, Q9C0E4): below the threshold |
| below the threshold | below the threshold | 3.85 | 4.1 | below the threshold | below the threshold | 4.16 | 3.71 | below the threshold | 4.07 | below the threshold | below the threshold | 3.84 | 4.41 | 4.34 | below the threshold | below the threshold | below the threshold | below the threshold | 3.91 | PELESKESVL [SLC1A4, P43007] | pKd (DLG5_1, Q8TDM6): below the threshold; pKd (IL16_3, Q14005): below the threshold; pKd (SCRIB_2, Q14160): below the threshold; pKd (Inadl_2, Q8NI35): below the threshold; pKd (GRIP1_7, Q9Y3R0): below the threshold; pKd (MAGI2_5, Q86UL8): 4.02; pKd (DLG4_3, P78352): below the threshold; pKd (DFNB31_2, Q9P202): 3.5; pKd (GRIP2_3, Q9C0E4): below the threshold |
| below the threshold | below the threshold | 3.7 | below the threshold | below the threshold | below the threshold | 3.53 | below the threshold | below the threshold | 4.05 | below the threshold | 3.49 | 4.48 | below the threshold | 3.52 | below the threshold | below the threshold | below the threshold | below the threshold | below the threshold | EEDTAEKDEL [HSPA5, P11021] | pKd (DLG5_1, Q8TDM6): below the threshold; pKd (IL16_3, Q14005): below the threshold; pKd (SCRIB_2, Q14160): below the threshold; pKd (Inadl_2, Q8NI35): below the threshold; pKd (GRIP1_7, Q9Y3R0): below the threshold; pKd (MAGI2_5, Q86UL8): below the threshold; pKd (DLG4_3, P78352): below the threshold; pKd (DFNB31_2, Q9P202): below the threshold; pKd (GRIP2_3, Q9C0E4): below the threshold |
